This passage reports Kd, koff and kon results from PMC7058304 (PLoS ONE, 2020).

B1: mAb19 (analog of sasanlimab) (antibody, V domains shown)
VH: QVQLVQSGAEVKKPGASVKVSCKASGYTFTSYWINWVRQAPGQGLEWMGNIYPGSSLTNYNEKFKNRVTMTRDTSTSTVYMELSSLRSEDTAVYYCARLSTGTFAYWGQGTLVTVSS
VL: DIVMTQSPDSLAVSLGERATINCKSSQSLWDSGNQKNFLTWYQQKPGQPPKLLIYWTSYRESGVPDRFSGSGSGTDFTLTISSLQAEDVAVYYCQNDYFYPHTFGGGTKVEIK
notes: VH; IgG4 heavy-chain constant region with stabilizing 226CPPC hinge; VL; IgG4 analog; source: HEK293 suspension cells, cotransfected, purified (Protein A)
B2: mAb04 (analog of retifanlimab) (antibody, V domains shown)
VH: QVQLVQSGAEVKKPGASVKVSCKASGYSFTSYWMNWVRQAPGQGLEWIGVIHPSDSETWLDQKFKDRVTITVDKSTSTAYMELSSLRSEDTAVYYCAREHYGTSPFAYWGQGTLVTVSS
VL: EIVLTQSPATLSLSPGERATLSCRASESVDNYGMSFMNWFQQKPGQPPKLLIHAASNQGSGVPSRFSGSGSGTDFTLTISSLEPEDFAVYFCQQSKEVPYTFGGGTKVEIK
notes: as for B1
B3: mAb17 (analog of camrelizumab) (antibody, V domains shown)
VH: EVQLVESGGGLVQPGGSLRLSCAASGFTFSSYMMSWVRQAPGKGLEWVATISGGGANTYYPDSVKGRFTISRDNAKNSLYLQMNSLRAEDTAVYYCARQLYYFDYWGQGTTVTVSS
VL: DIQMTQSPSSLSASVGDRVTITCLASQTIGTWLTWYQQKPGKAPKLLIYTATSLADGVPSRFSGSGSGTDFTLTISSLQPEDFATYYCQQVYSIPWTFGGGTKVEIK
notes: as for B1
B4: mAb21 (analog of sintilimab) (antibody, V domains shown)
VH: QVQLVQSGAEVKKPGSSVKVSCKASGGTFSSYAISWVRQAPGQGLEWMGLIIPMFDTAGYAQKFQGRVAITVDESTSTAYMELSSLRSEDTAVYYCARAEHSSTGTFDYWGQGTLVTVSS
VL: DIQMTQSPSSVSASVGDRVTITCRASQGISSWLAWYQQKPGKAPKLLISAASSLQSGVPSRFSGSGSGTDFTLTISSLQPEDFATYYCQQANHLPFTFGGGTKVEIK
notes: as for B1
B5: mAb03 (antibody, V domains shown)
VH: QVQLQESGPGLVKPSETLSLTCTVSGFSLTSYGVHWIRQPPGKGLEWIGVIYADGSTNYNPSLKSRVTISKDTSKNQVSLKLSSVTAADTAVYYCARAYGNYWYIDVWGQGTTVTVSS
VL: DIVMTQSPDSLAVSLGERATINCKSSESVSNDVAWYQQKPGQPPKLLINYAFHRFTGVPDRFSGSGYGTDFTLTISSLQAEDVAVYYCHQAYSSPYTFGQGTKLEIK
notes: IgG4; also called analog of tislelizumab; tisle; source: HEK293 suspension cells, cotransfected, purified (Protein A)
B6: mAb23 (antibody, V domains shown)
VH: EVQLLESGGVLVQPGGSLRLSCAASGFTFSNFGMTWVRQAPGKGLEWVSGISGGGRDTYFADSVKGRFTISRDNSKNTLYLQMNSLKGEDTAVYYCVKWGNIYFDYWGQGTLVTVSS
VL: DIQMTQSPSSLSASVGDSITITCRASLSINTFLNWYQQKPGKAPNLLIYAASSLHGGVPSRFSGSGSGTDFTLTIRTLQPEDFATYYCQQSSNTPFTFGPGTVVDFR
notes: IgG4; also called analog of cemiplimab; cemip; source: HEK293 suspension cells, cotransfected, purified (Protein A)
B7: mAb16 (antibody, V domains shown)
VH: EVQLLESGGGLVQPGGSLRLSCAASGFTFSSYDMSWVRQAPGKGLEWVSTISGGGSYTYYQDSVKGRFTISRDNSKNTLYLQMNSLRAEDTAVYYCASPYYAMDYWGQGTTVTVSS
VL: DIQLTQSPSFLSAYVGDRVTITCKASQDVGTAVAWYQQKPGKAPKLLIYWASTLHTGVPSRFSGSGSGTEFTLTISSLQPEDFATYYCQHYSSYPWTFGQGTKLEIK
notes: IgG4; also called analog of dostarlimab; dostar; source: HEK293 suspension cells, cotransfected, purified (Protein A)
B8: mAb17 (antibody, V domains shown)
VH: B3 VH
VL: B3 VL
notes: IgG4; also called analog of camrelizumab; camre; source: HEK293 suspension cells, cotransfected, purified (Protein A)

T3 sequence (Q15116 whole entry, looked up, tested part not stated): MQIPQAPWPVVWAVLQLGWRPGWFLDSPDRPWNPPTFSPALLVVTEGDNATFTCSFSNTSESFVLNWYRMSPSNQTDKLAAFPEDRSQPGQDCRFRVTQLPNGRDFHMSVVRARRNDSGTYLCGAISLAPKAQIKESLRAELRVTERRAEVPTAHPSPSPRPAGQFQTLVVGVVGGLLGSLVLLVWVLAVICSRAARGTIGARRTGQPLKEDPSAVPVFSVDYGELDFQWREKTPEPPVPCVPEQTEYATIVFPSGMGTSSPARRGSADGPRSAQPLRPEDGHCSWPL

The target of one test is T1, Recombinant purified human PD-1 protein, residues Leu25-Thr168, with a C-terminal 6-His tag (human, UniProt Q15116).
T1 construct: programmed cell death protein 1 (PD-1), human, residues Leu25-Thr168; monomer; the results call it wild-type or full length PD-1 against the P35-Q167 fragment; also called PD-1-His; PD-1 His-tagged monomer; source: bought: R&D Systems; not shown: His6, C-terminal, kept
T1 sequence (Q15116 25-168): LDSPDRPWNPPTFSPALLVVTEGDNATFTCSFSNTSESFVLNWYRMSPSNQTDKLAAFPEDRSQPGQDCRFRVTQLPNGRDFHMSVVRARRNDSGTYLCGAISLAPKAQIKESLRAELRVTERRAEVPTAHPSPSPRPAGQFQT
Briefly: SPR; Biacore 8K, 3D-hydrogel chips (average of CM5 and CMD-200M); mAbs captured on goat anti-human IgG Fc; PD-1 His-tagged monomer analyte 0.4-100 nM; 25 C; HBS-EP+ pH 7.4; 1:1 Langmuir fit with mass transport; apparent. Conditions: both partners purified. (SPR reads the build-up and loss of mass on a sensor chip optically.)
Take B1: the Kd is below 0.3 nM.
Regarding B2, the Kd was found to be 0.65 nM.
For the molecule B3, the Kd is 4.5 nM.
As to B4, the Kd is below 0.21 nM.

The next test deals with T2, Recombinant purified human PD-1 protein, residues Leu25-Thr168, with a C-terminal 6-His tag (Homo sapiens, UniProt Q15116).
T2 construct: programmed cell death protein 1 (PD-1), human, residues Leu25-Thr168; also called programmed cell death protein 1; PD-1-His monomer; source: bought: R&D Systems (catalog# 8986-PD, lot# DDJM0417041)
T2 sequence (Q15116 25-168): as above
Briefly: SPR; Biacore 8K, C1 chip (flat); mAb captured on amine-coupled goat anti-human IgG Fc, PD-1-His monomer as analyte (100 nM top, 3-fold dilutions), 1200 s dissociation; 25 C, HBS-EP+ pH 7.4; 1:1 Langmuir fit, apparent constants; 8 mAbs measured in two independent experiments. Particulars: both partners purified.
In general, koff refers to a measure of how fast the partners let go of each other. By kon is commonly meant the second-order rate constant of association. As to B5, the Kd turned out to be 0.128 nM, the off-rate constant (koff) is 8.72e-05 s⁻¹ and the kon turned out to be 682000 M⁻¹ s⁻¹.

Another test deals with T2, Recombinant purified human PD-1 …. The description is as above. Conditions: both partners purified. The source holds these as a separate data set.
For the molecule B6, the Kd was 0.752 nM, the koff worked out at 0.000188 s⁻¹ and the kon was 250000 M⁻¹ s⁻¹.
As to B7, the Kd is 0.784 nM, the koff was determined as 0.000297 s⁻¹ and the kon worked out at 379000 M⁻¹ s⁻¹.
B5: the Kd was 0.119 nM, the koff came out at 7.54e-05 s⁻¹ and the association rate constant (kon) is 636000 M⁻¹ s⁻¹.
Regarding B8, the Kd stood at 2.15 nM, the koff is 0.000526 s⁻¹ and the association rate constant (kon) came out at 245000 M⁻¹ s⁻¹.

Another test shares this target. Briefly: SPR; Biacore 8K, CMD-200M chip (3D-hydrogel); mAb captured on amine-coupled goat anti-human IgG Fc, PD-1-His monomer as analyte (100 nM top, 3-fold dilutions), 1200 s dissociation; 25 C, HBS-EP+ pH 7.4; 1:1 Langmuir fit, apparent constants. Conditions: both partners purified.
As to B6, the Kd was determined as 2.01 nM, the off-rate (koff) was 0.000212 s⁻¹ and the kon worked out at 105000 M⁻¹ s⁻¹.
For B7, the Kd came out at 1.63 nM, the koff was determined as 0.000287 s⁻¹ and the kon was 176000 M⁻¹ s⁻¹.
B5: the Kd is 0.24 nM, the koff turned out to be 6.16e-05 s⁻¹ and the kon worked out at 257000 M⁻¹ s⁻¹.
In the case of B8, the Kd turned out to be 4.09 nM, the dissociation rate constant (koff) is 0.000503 s⁻¹ and the on-rate (kon) was 123000 M⁻¹ s⁻¹.

Another test concerns the target T1, Recombinant purified human PD-1 …. Briefly: SPR; Carterra LSA, CMD-P (flat) chip; mAbs captured on goat anti-human IgG Fc in a 384-spot array; PD-1-His analyte 0.5-1000 nM, 5 min association, 20 min dissociation; HBS-ET + 0.5 mg/ml BSA; 1:1 Langmuir fit; mean of spots; apparent. Conditions: both partners purified.
B1: the Kd is below 0.17 nM, the koff was below 4.3e-05 s⁻¹ and the on-rate (kon) was 250000 M⁻¹ s⁻¹.
In the same order, the values of B2 are 0.7 nM, 0.00039 s⁻¹ and 580000 M⁻¹ s⁻¹.
As for B3, the Kd is 4 nM, the dissociation rate constant (koff) amounted to 0.00073 s⁻¹ and the kon came out at 180000 M⁻¹ s⁻¹.
In the case of B4, the Kd is below 0.13 nM, the koff is below 4.3e-05 s⁻¹ and the kon was 330000 M⁻¹ s⁻¹.

For another test, the target named is T2, Recombinant purified human PD-1 …. As to the kind of experiment: SPR; Biacore 8K, CMD-P chip (flat); mAb captured on amine-coupled goat anti-human IgG Fc, PD-1-His monomer as analyte (100 nM top, 3-fold dilutions), 1200 s dissociation; 25 C, HBS-EP+ pH 7.4; 1:1 Langmuir fit, apparent constants. Conditions: both partners purified.
Consider B6, for which the Kd is 0.897 nM, the off-rate constant (koff) turned out to be 0.000164 s⁻¹ and the kon is 183000 M⁻¹ s⁻¹.
For B7, the Kd turned out to be 0.965 nM, the off-rate constant (koff) came to 0.000269 s⁻¹ and the kon is 279000 M⁻¹ s⁻¹.
Regarding B5, the Kd came to 0.134 nM, the off-rate (koff) was determined as 5.77e-05 s⁻¹ and the kon came to 432000 M⁻¹ s⁻¹.
B8: the Kd is 2.58 nM, the off-rate constant (koff) was found to be 0.000497 s⁻¹ and the kon stood at 192000 M⁻¹ s⁻¹.

The next test addresses T3, biotinylated His-tagged PD-1 (Homo sapiens, UniProt Q15116, biotin).
T3 construct: PD-1, His-tagged, biotinylated, used in the MSD experiments; probably the R&D Systems Leu25-Thr168 protein after biotinylation
As to the kind of experiment: MSD solution equilibrium titration; 100 pM biotinylated His-tagged PD-1 titrated with mAb (top 100, 50 or 10 nM binding sites), 18 h at room temperature; free antigen captured on mAb-coated MSD plates; relative KD. Particulars: both partners purified.
On to B1, for which the Kd was 0.02 nM.
On the same count and under the same terms, next, B2: 0.056 nM.
In turn, B3 returned a Kd of 0.47 nM.
On to B4, for which the Kd amounted to 0.028 nM.

The next test deals with T2, Recombinant purified human PD-1 …. As to the kind of experiment: SPR; Biacore 8K, CM5 chip (3D-hydrogel); mAb captured on amine-coupled goat anti-human IgG Fc, PD-1-His monomer as analyte (100 nM top, 3-fold dilutions), 1200 s dissociation; 25 C, HBS-EP+ pH 7.4; 1:1 Langmuir fit, apparent constants. Conditions: both partners purified.
For B6, the Kd came out at 1.75 nM, the koff turned out to be 0.000157 s⁻¹ and the kon was 90100 M⁻¹ s⁻¹.
As to B7, the Kd was found to be 1.77 nM, the dissociation rate constant (koff) is 0.000262 s⁻¹ and the association rate constant (kon) was found to be 148000 M⁻¹ s⁻¹.
Consider B5, for which the Kd was 0.277 nM, the koff amounted to 6.03e-05 s⁻¹ and the kon is 218000 M⁻¹ s⁻¹.
For B8, the Kd came to 4.99 nM, the koff was 0.000456 s⁻¹ and the association rate constant (kon) was found to be 91400 M⁻¹ s⁻¹.

The target in the next test is T1, Recombinant purified human PD-1 …. As to the kind of experiment: SPR; Biacore 8K, flat chips (average of C1 and CMD-P); mAbs captured on goat anti-human IgG Fc; PD-1 His-tagged monomer analyte 0.4-100 nM; 25 C; HBS-EP+ pH 7.4; 1:1 Langmuir fit with mass transport; apparent. Particulars: both partners purified.
B1: the Kd was below 0.13 nM.
Take B2: the Kd was determined as 0.35 nM.
Turning to B3, the Kd came to 2.4 nM.
B4: the Kd was below 0.12 nM.
